From US20250009852A1, “DEPLETING EGFR AND HER2 OVERCOMES RESISTANCE TO EGFR INHIBITORS IN COLORECTAL CANCER” (Health Research, Inc., priority 2021, published 2025) come the findings set out here.

The subject of data set [1] is HER3, IGF1R, MET, SRC, AKT, ERK, MEK, NRAS, HRAS, caspase 3. Put plainly: Western blotting of tumor homogenates: other signaling proteins. Format: in vivo, mouse. The protocol: To prepare whole cell lysates, cells were washed with PBS twice, mixed with 1× cell lysis buffer from Cell Signaling Technology supplemented with 2 mM PMSF and a protease inhibitor cocktail from Roche Applied Science, placed on ice for 10 min, sonicated at 0-4° C. to enhance cell lysis using a Branson Model 450 sonifier, and finally centrifuged at 13,000 g for 10 min at 4° C., and the supernatant fraction is collected as whole cell lysate. Tumor and samples were mixed with RIPA buffer (25 mM Tris-HCl, PH7.6, 150 mM NaCl, 1% Nonidet P-40, 1% sodium deoxycholate, and 0.1% SDS), which was supplemented with 2 mM PMSF, the protease inhibitor cocktail mentioned above, phosphatase inhibitor cocktail 2 and phosphatase inhibitor cocktail 3 from Sigma-Aldrich at 14.3 μl buffer per mg tissue, and homogenized in a Dounce homogenizer. The homogenates were cleared by centrifugation at 13,000 g for 15 min at 4° C.
Protein concentrations in all samples were measured using the BCA Assay Kit. For Western blotting, each sample was mixed with 4× loading dye, heated for 5 min at 95° C., and resolved by SDS-PAGE (8-12.5%). Proteins were transferred to polyvinylidene fluoride membrane, probed with specific antibodies, and detected using either Luminata Classico (Millipore) or Luminata Cresendo (Millipore). […] The beads were washed three times with IP buffer, suspended in 2× SDS loading buffer, boiled for 5 min, and analyzed by Western blotting.
SCID mice (C.B.17 SCID) were bred by the Laboratory Animal Shared Resource at Roswell Park Comprehensive Cancer Center. […] Subcutaneous tumor volume was measured using length ×width^2÷2. Tumor volume was measured three times each week. Orthotopic tumor growth was monitored by bioluminescence weekly. Mice were given D-luciferin (150 mg/kg) by ip and anesthetized with isoflurane, and tumor burden was measured by bioluminescence using the IVIS Spectrum In Vivo Imaging System (PerkinElmer). Drug treatment was started when significant tumor growth was detected. […] The mice were closely monitored for sign of adverse effects and weighed three times each week.
(In general: A western blot detects proteins with antibodies after separation by electrophoresis.)

Data set [2] can be described thus: Measurement of plasma PEPD^G278D concentration by ELISA. Format: in vivo, mouse. Conditions: mice bearing SW48 tumors and HCT116 tumors; 24 h after final PEPD^G278D treatment (4 mg/kg ip with EP). As for the experimental part: Plasma PEPD^G278D concentration was measured by ELISA as previously reported. Briefly, 96-well ELISA plates were coated with 100 μl/well of a PEPD antibody (mouse monoclonal, against amino acids 101-305, sc-390042) overnight at 4° C. The plates were then washed three times with PBST and incubated with 200 μl/well of a blocking buffer for at least 2 h at RT. The plates were washed again with PBST and incubated with 100 μl/well of a PEPD standard or a sample, which were appropriately diluted, for 2 h at RT. After another round of wash with PBST, each well was incubated with 100 μl of a detection antibody (an anti-PEPD rabbit polyclonal, ab-86507) for 2 h at RT. After another round of wash with PBST, 100 μl of a secondary antibody-HRP conjugate was added to each well, followed by 1 h incubation at RT. The plates were washed again with PBST three times, and each well was then incubated with 100 μl of a HRP substrate solution. After adequate color development, 100 μl of stop solution was added to each well, and absorbance at 450 nm was recorded by a Synergy 2 Multi-Mode Microplate Reader. Purified recombinant PEPD^G278D was used as a standard.
(In general: An ELISA detects its analyte on a solid surface through an enzyme-linked reagent.)

For the molecule `COC(=O)N1CC2(CC2)C[C@H](C(=O)NO)[C@H]1C(=O)N1CC=C(c2ccccc2)CC1` [aderbasib], the “expression or phosphorylation of the proteins analyzed in tumors” value in data set [1] (HCT116 and HT29 tumors, single agent) was “neither EP nor aderbasib had any effect”.

B1: PEPD^G278D: recombinant and enzymatically inactive mutant of human peptidase D (PEPD), with replacement of glycine 278 by aspartic acid (protein)
chain: AAATGPSFWLGNETLKVPLALFALNRQRLCERLRKNPAVQAGSIVVLQGGEETQRYCTDTGVLFLQESFFHWAFGVTEPGCYGVIDVDTGKSTLFVPRLPASHATWMGKIHSKEHFKEKYAVDDVQYVDEIASVLTSQKPSVLLTLRGVNTDSGSVCREASFDGISKFEVNNTILHPEIVESRVFKTDMELEVLRYTNKISSEAHREVMKAVKVGMKEYGLESLFEHYCYSRGGMRHSSYTCICGSGENSAVLHYGHAGAPNDRTIQNGDMCLFDMDGEYYSVASDITCSFPRNGKFTADQKAVYEAVLLSSRAVMGAMKPGDWWPDIDRLADRIHLEELAHMGILSGSVDAMVQAHLGAVFMPHGLGHFLGIDVHDVGGYPEGVERIDEPGLRSLRTARHLQPGMVLTVEPGIYFIDHLLDEALADPARASFLNREVLQRFRGFGGVRIEEDVVVIDSGIELLTCVPRTVEEIEACMAGCDKAFTPFSGPK
modifications: left off: small tags and cut ends
Take B1: the “plasma concentrations of PEPD^G278D” value in data set [2] was “high and similar”. In data set [1] (SW48 tumors, 24 h after the final dose), the “ERK phosphorylation in tumors” value is listed as “decreased ERK phosphorylation”.
